Measurements as given in paper PMC8996488 (Journal of molecular biology, 2021).

T1: RecB subunit of E. coli RecBCD (134 kDa) (E. coli, UniProt P08394 1-1180)
T1 sequence (looked up): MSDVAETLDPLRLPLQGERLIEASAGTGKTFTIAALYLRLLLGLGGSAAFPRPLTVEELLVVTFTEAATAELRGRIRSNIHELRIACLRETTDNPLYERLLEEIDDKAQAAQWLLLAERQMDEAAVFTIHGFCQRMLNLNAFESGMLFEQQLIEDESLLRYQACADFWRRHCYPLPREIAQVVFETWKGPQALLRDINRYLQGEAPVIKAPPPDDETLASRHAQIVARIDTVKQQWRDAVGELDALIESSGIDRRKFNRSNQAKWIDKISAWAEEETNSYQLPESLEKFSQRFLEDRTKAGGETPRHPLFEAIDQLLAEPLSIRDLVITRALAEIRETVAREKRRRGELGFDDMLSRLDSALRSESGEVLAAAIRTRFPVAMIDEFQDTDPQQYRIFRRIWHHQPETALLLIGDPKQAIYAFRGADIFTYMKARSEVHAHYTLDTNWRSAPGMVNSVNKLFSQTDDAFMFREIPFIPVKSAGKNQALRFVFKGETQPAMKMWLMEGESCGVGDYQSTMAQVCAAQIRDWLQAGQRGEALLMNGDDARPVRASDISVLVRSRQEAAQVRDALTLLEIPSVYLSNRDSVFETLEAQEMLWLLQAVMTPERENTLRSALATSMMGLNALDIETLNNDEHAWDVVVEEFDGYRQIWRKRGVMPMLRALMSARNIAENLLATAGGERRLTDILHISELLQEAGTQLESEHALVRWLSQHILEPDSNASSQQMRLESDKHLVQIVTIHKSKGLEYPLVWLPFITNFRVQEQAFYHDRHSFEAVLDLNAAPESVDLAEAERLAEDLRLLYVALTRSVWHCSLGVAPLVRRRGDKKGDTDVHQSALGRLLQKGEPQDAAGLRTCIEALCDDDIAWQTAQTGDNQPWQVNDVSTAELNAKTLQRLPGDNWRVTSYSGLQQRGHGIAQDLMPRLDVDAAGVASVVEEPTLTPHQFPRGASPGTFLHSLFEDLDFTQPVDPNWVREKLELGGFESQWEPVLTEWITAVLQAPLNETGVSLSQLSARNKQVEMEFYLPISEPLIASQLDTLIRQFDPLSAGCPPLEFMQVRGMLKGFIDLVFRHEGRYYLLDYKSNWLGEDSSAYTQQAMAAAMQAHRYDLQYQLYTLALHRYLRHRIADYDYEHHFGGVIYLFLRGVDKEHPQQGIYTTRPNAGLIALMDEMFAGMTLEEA

B1: RecD subunit of E. coli RecBCD (enzyme, UniProt P04993 1-608, looked up)
chain: MKLQKQLLEAVEHKQLRPLDVQFALTVAGDEHPAVTLAAALLSHDAGEGHVCLPLSRLENNEASHPLLATCVSEIGELQNWEECLLASQAVSRGDEPTPMILCGDRLYLNRMWCNERTVARFFNEVNHAIEVDEALLAQTLDKLFPVSDEINWQKVAAAVALTRRISVISGGPGTGKTTTVAKLLAALIQMADGERCRIRLAAPTGKAAARLTESLGKALRQLPLTDEQKKRIPEDASTLHRLLGAQPGSQRLRHHAGNPLHLDVLVVDEASMIDLPMMSRLIDALPDHARVIFLGDRDQLASVEAGAVLGDICAYANAGFTAERARQLSRLTGTHVPAGTGTEAASLRDSLCLLQKSYRFGSDSGIGQLAAAINRGDKTAVKTVFQQDFTDIEKRLLQSGEDYIAMLEEALAGYGRYLDLLQARAEPDLIIQAFNEYQLLCALREGPFGVAGLNERIEQFMQQKRKIHRHPHSRWYEGRPVMIARNDSALGLFNGDIGIALDRGQGTRVWFAMPDGNIKSVQPSRLPEHETTWAMTVHKSQGSEFDHAALILPSQRTPVVTRELVYTAVTRARRRLSLYADERILSAAIATRTERRSGLAALFSSRE
B2: RecC subunit of E. coli RecBCD (natural protein, UniProt P07648 1-1122, looked up)
chain: MLRVYHSNRLDVLEALMEFIVERERLDDPFEPEMILVQSTGMAQWLQMTLSQKFGIAANIDFPLPASFIWDMFVRVLPEIPKESAFNKQSMSWKLMTLLPQLLEREDFTLLRHYLTDDSDKRKLFQLSSKAADLFDQYLVYRPDWLAQWETGHLVEGLGEAQAWQAPLWKALVEYTHQLGQPRWHRANLYQRFIETLESATTCPPGLPSRVFICGISALPPVYLQALQALGKHIEIHLLFTNPCRYYWGDIKDPAYLAKLLTRQRRHSFEDRELPLFRDSENAGQLFNSDGEQDVGNPLLASWGKLGRDYIYLLSDLESSQELDAFVDVTPDNLLHNIQSDILELENRAVAGVNIEEFSRSDNKRPLDPLDSSITFHVCHSPQREVEVLHDRLLAMLEEDPTLTPRDIIVMVADIDSYSPFIQAVFGSAPADRYLPYAISDRRARQSHPVLEAFISLLSLPDSRFVSEDVLALLDVPVLAARFDITEEGLRYLRQWVNESGIRWGIDDDNVRELELPATGQHTWRFGLTRMLLGYAMESAQGEWQSVLPYDESSGLIAELVGHLASLLMQLNIWRRGLAQERPLEEWLPVCRDMLNAFFLPDAETEAAMTLIEQQWQAIIAEGLGAQYGDAVPLSLLRDELAQRLDQERISQRFLAGPVNICTLMPMRSIPFKVVCLLGMNDGVYPRQLAPLGFDLMSQKPKRGDRSRRDDDRYLFLEALISAQQKLYISYIGRSIQDNSERFPSVLVQELIDYIGQSHYLPGDEALNCDESEARVKAHLTCLHTRMPFDPQNYQPGERQSYAREWLPAASQAGKAHSEFVQPLPFTLPETVPLETLQRFWAHPVRAFFQMRLQVNFRTEDSEIPDTEPFILEGLSRYQINQQLLNALVEQDDAERLFRRFRAAGDLPYGAFGEIFWETQCQEMQQLADRVIACRQPGQSMEIDLACNGVQITGWLPQVQPDGLLRWRPSLLSVAQGMQLWLEHLVYCASGGNGESRLFLRKDGEWRFPPLAAEQALHYLSQLIEGYREGMSAPLLVLPESGGAWLKTCYDAQNDAMLDDDSTLQKARTKFLQAYEGNMMVRGEGDDIWYQRLWRQLTPETMEAIVEQSQRFLLPLFRFNQS

Legend:
[1] = molecular target: T1, RecB subunit of E. coli RecBCD (134 kDa); assay: AUC
[2] = molecular target: B2; assay: AUC

binding result [1] | binding result [2] | Binder
binds | binds | B1
binds |  | B2
